Data as given in publication PMC11969024, “Development of chemokine network inhibitors using combinatorial saturation mutagenesis” (Communications Biology, 2025).

B1: peptide HD2 (from tick evasin EVA4) / CXCL14 (biotinylated, synthetic) (parent)
chain 1: EEDDYTAYAPLTCYFT
chain 2: SKCKCSRKGPKIRYSDVKKLEMKPKYPHCEEKMVIITTKSVSRYRGQEHCLHPKLQSTKRFIKWYNAWNEKRRVYEE
B2: peptide HD2 (from tick evasin EVA4) / CXCL11 (biotinylated, synthetic) (parent)
chain 1: EEDDYTAYAPLTCYFT
chain 2: FPMFKRGRCLCIGPGVKAVKVADIEKASIMYPSNNCDKIEVIITLKENKGQRCLNPKSKQARLIIKKVERKNF

Variants of: B1
Conditions: with CXCL14 (biotinylated, synthetic); scale: log2

enrichment, by site and new letter:
chain 1 E1: K -4.33, R -6.24, P -5.8, H -6.24, N -6.84, G -5.5
chain 1 D3: Q -3.25, R -5.71, L -8.51, K -3.62, H -5.23, C -8.16, W -5.18, S -7.81, A -5.29, M -6.1, V -7.6
chain 1 Y8: A -7.04, H -5.83, G -6.97, Q -4.62, K -4.33, E -4.45, T -6.74, S -8.01, R -6.45, C -7.94
chain 1 F15: D -6.86, P -5.62, T -5.59, E -7.19, K -5.27
chain 1 T16: R -7.45, Y -5.41, F -5.71
chain 1 E2: R -5.39, A -5.18, Q -3.16, P -5.31, H -5.9, C -8.27, K -3.41
chain 1 Y14: N -5.16, P -7.11, K -6.43, S -7.93, G -8.76, F -6.35, M -7.23, I -5.53, R -8.35, D -5.79, T -7.2
chain 1 D4: V -8.11, H -6.03, G -4.48, R -5.35, Q -4.74, K -5.14, L -9.04, C -7.5, A -6.34, T -6.14
chain 1 Y5: A -5.33, V -7.53, T -5.93, P -4.99, R -5.31, K -3.86, G -5.37, D -5.31, Q -3.62, N -5.97, E -1.74, S -7.36
chain 1 A7: C -8.1
chain 1 A9: C -8.35, R -6.78, P -6.07
chain 1 P10: K -5.23, I -6.7, C -7.98, N -6.28, T -6.13, Y -6.83, R -7.34

Variants of: B2
Conditions: with CXCL11 (biotinylated, synthetic); scale: log2

enrichment, by site and new letter:
chain 1 Y8: R -5.32, P -5, K -3.21, C -6.82, Q -3.5, E -3.32
chain 1 D3: K -2.5, C -7.03, P -4.65, E -1.84, Q -2.12, A -4.17, M -4.98, V -6.48, H -4.1, R -4.59
chain 1 E2: R -4.27, Q -2.04, C -7.15, P -4.19
chain 1 A7: C -6.98
chain 1 L11: E -5.3, N -5.58, G -7.39, Q -3.39
chain 1 P10: F -6.55, K -4.1, C -6.86, Q -3.53, Y -5.7, R -6.22
chain 1 Y5: C -6.3, G -4.25, S -6.24, P -3.87, E -0.621, V -6.41, R -4.19, M -4.78, A -4.21, Q -2.5, D -4.19, K -2.74, T -4.8
chain 1 C13: G -7.57, Y -5.88, D -6.29, K -6.26, I -5.31, R -7.69, W -6.78
chain 1 T12: G -7.44, K -4.72
chain 1 A9: C -7.23, D -5.37, K -3.76
chain 1 T16: R -6.32, H -4.21
chain 1 D4: C -6.38, A -5.22, G -3.36, R -4.23, N -5.1, K -4.01, H -4.91, E -3.08, T -5.01
chain 1 E1: K -3.21, R -5.11, C -6.89
chain 1 Y14: K -5.3, I -4.41, E -5.9, N -4.04, D -4.67, P -5.99, Q -5.19, R -7.23, S -6.81, M -6.11
chain 1 F15: N -3.87
